In patent US20210338158A1, “MEASUREMENT SYSTEM” (WearOptimo Pty Ltd, published 2021):

Tests used:
[1] = target: recombinant troponin I (cardiac troponin I) (UniProt P19429 P19429:2-210); test: AC voltammetry; MB redox current decreases on troponin I exposure; aptamer immobilised on gold microstructures in perfused pig skin (600 ng/mL perfusate) and on gold disk electrode in 150 mM PBS pH 7.4; conditions: label: methylene blue
[2] = target: bovine serum albumin (Bos taurus, UniProt P02769 P02769:25-607); test: AC voltammetry specificity control; 50 ng/mL BSA in PBS gave little change on aptamer-functionalised gold disk electrode; conditions: label: methylene blue
bovine serum albumin, sequence (P02769 25-607, one chain of several): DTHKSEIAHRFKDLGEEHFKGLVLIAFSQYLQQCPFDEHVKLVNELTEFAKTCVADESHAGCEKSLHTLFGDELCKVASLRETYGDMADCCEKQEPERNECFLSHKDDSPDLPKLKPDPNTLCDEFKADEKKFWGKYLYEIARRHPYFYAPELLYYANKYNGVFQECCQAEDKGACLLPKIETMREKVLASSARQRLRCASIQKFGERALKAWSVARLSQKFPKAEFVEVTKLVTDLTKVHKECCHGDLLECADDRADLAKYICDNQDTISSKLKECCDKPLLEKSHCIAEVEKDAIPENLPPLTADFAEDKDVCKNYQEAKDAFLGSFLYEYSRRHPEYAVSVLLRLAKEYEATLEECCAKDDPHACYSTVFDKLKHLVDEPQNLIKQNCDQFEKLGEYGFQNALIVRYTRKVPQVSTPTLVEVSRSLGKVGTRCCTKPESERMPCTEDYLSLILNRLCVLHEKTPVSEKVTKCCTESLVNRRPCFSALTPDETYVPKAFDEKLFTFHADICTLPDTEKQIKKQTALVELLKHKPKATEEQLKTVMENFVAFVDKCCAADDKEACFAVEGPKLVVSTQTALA

recombinant troponin I (cardiac troponin I), sequence (P19429 2-210, one chain of several): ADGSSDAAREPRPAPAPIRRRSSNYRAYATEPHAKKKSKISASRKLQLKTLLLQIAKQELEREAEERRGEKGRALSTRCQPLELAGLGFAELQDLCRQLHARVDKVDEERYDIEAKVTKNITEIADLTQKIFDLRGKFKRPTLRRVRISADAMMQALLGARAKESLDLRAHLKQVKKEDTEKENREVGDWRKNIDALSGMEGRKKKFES

B1: troponin I aptamer (thiol/methylene blue) (ssDNA)
DNA: AGTCTCCGCTGTCCTCCCGATGCACTTGACGTATGTCTCACTTTCTTTTCATTGACATGGGATGACGCCGTGACTG
modifications: 5'-SH-(CH2)6, 3'-methylene blue
B1: binds [1]; no binding [2].
